Substrate: CCCCCCCC/C=C\CCCCCCCC(=O)SCCNC(=O)CCNC(=O)[C@H](O)C(C)(C)COP(=O)(O)OP(=O)(O)OC[C@H]1O[C@@H](n2cnc3c(N)ncnc32)[C@H](O)[C@@H]1OP(=O)(O)O
Experiment: cells, lysate or membranes
Format: cell-based, Arabidopsis thaliana
Conditions: acyl acceptor sn-1-18:1-LPC, pH 7.2, 30 °C, labelled compound

B1: AtLPCAT1 (Arabidopsis thaliana) (protein)
chain: MDMSSMAGSIGVSVAVLRFLLCFVATIPVSFACRIVPSRLGKHLYAAASGAFLSYLSFGFSSNLHFLVPMTIGYASMAIYRPKCGIITFFLGFAYLIGCHVFYMSGDAWKEGGIDSTGALMVLTLKVISCSMNYNDGMLKEEGLREAQKKNRLIQMPSLIEYFGYCLCCGSHFAGPVYEMKDYLEWTEGKGIWDTTEKRKKPSPYGATIRAILQAAICMALYLYLVPQYPLTRFTEPVYQEWGFLRKFSYQYMAGFTARWKYYFIWSISEASIIISGLGFSGWTDDASPKPKWDRAKNVDILGVELAKSAVQIPLVWNIQVSTWLRHYVYERLVQNGKKAGFFQLLATQTVSAVWHGLYPGYMMFFVQSALMIAGSRVIYRWQQAISPKMAMLRNIMVFINFLYTVLVLNYSAVGFMVLSLHETLTAYGSVYYIGTIIPVGLILLSYVVPAKPSRPKPRKEE
Km: 18 µM

Reference: article PMC3873549, “Plant Acyl-CoA:Lysophosphatidylcholine Acyltransferases (LPCATs) Have Different Specificities in Their Forward and Reverse Reactions” (The Journal of Biological Chemistry, 2013)
